Data as given in paper PMC6635623.
“And” between values parts separate entries of the source, which are not always exact repeats. Identical values can stand only once.

Target: Hfq-FLAG (Yersinia pestis Hfq with C-terminal 3×FLAG tag) (Yersinia pestis)
Assay: […]; 25 mM Tris-HCl (pH 8.0) […]

Substance: Hfq-FLAG (Yersinia pestis Hfq with C-terminal 3×FLAG tag) (natural protein)
- stoichiometry N: 3 and 6
